Measurements: article PMC4107794 (The Journal of Cell Biology, 2014)

Legend:
GST-Rad18 = GST-Rad18 (UniProt Q9NS91 1-495); assay: pull-down
FLAG-Rad18 = FLAG-Rad18 (UniProt Q9NS91 1-495); assay: pull-down
Chain of FLAG-Rad18 (Q9NS91 whole entry): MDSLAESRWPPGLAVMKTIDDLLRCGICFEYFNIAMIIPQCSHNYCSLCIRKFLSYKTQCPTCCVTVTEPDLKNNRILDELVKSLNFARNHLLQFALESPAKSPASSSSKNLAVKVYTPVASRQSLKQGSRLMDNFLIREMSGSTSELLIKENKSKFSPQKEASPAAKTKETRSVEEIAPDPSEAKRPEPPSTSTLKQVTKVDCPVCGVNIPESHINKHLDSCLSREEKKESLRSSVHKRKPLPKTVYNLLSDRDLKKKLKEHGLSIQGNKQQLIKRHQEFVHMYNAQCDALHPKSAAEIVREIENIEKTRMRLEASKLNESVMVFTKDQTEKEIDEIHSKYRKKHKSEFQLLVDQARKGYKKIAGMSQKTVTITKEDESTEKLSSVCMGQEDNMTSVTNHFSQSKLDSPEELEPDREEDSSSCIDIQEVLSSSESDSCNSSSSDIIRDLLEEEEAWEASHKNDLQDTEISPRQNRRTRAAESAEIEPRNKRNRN

Chain of GST-Rad18 (Q9NS91 whole entry): as above

binding result (GST-Rad18): binds | binding result (FLAG-Rad18): binds
B1: FLAG-SHPRH (natural protein)
chain: MSSRRKRAPPVRVDEEKRQQLHWNMHEDRRNEPIIISDDDEQPCPGSDTSSAHYIILSDSLKEEVAHRDKKRCSKVVSFSKPIEKEETVGIFSPLSVKLNIVISPYHFDNSWKAFLGELTLQLLPAQSLIENFSERSITLMSSESSNQFLIYVHSKGEDVEKQKKEPMSICDKGILVESSFSGEMLEDLGWLQKKRRIKLYQKPEGNHIIKVGIYLLEAGLAKLDFLSDANSRMKKFNQLMKKVMEKLHNSIIPDVLEEDEDDPESEPEGQDIDELYHFVKQTHQQETQSIQVDVQHPALIPVLRPYQREAVNWMLQQECFRSSPATESALHFLWREIVTSEGLKLYYNPYTGCIIREYPNSGPQLLGGILADEMGLGKTVEVLALILTHTRQDVKQDALTLPEGKVVNYFIPSHYFGGKLKKTEIQNIEFEPKEKVQCPPTRVMILTAVKEMNGKKGVSILSIYKYVSSIYRYDVQRNRSLLKRMLKCLIFEGLVKQIKGHGFSGTFTLGKNYKEEDICDKTKKQAVGSPRKIQKETRKSGNKDTDSEYLPSDTSDDDDDPYYYYYKSRRNRSKLRKKLVPSTKKGKSQPFINPDSQGHCPATSDSGITDVAMSKSTCISEFNQEHETEDCAESLNHADSDVPPSNTMSPFNTSDYRFECICGELDQIDRKPRVQCLKCHLWQHAKCVNYDEKNLKIKPFYCPHCLVAMEPVSTRATLIISPSSICHQWVDEINRHVRSSSLRVLVYQGVKKDGFLQPHFLAEQDIVIITYDVLRSELNYVDIPHSNSEDGRRLRNQKRYMAIPSPLVAVEWWRICLDEAQMVECPTVKAAEMAQRLSGINRWCISGTPVQRGLEDLFGLVVFLGIEPYCVKHWWVRLLYRPYCKKNPQHLYSFIAKILWRSAKKDVIDQIQIPPQTEEIHWLHFSPVERHFYHRQHEVCCQDVVVKLRKISDWALKLSSLDRRTVTSILYPLLRLRQACCHPQAVRGEFLPLQKSTMTMEELLTSLQKKCGTECEEAHRQLVCALNGLAGIHIIKGEYALAAELYREVLRSSEEHKGKLKTDSLQRLHATHNLMELLIARHPGIPPTLRDGRLEEEAKQLREHYMSKCNTEVAEAQQALYPVQQTIHELQRKIHSNSPWWLNVIHRAIEFTIDEELVQRVRNEITSNYKQQTGKLSMSEKFRDCRGLQFLLTTQMEELNKCQKLVREAVKNLEGPPSRNVIESATVCHLRPARLPLNCCVFCKADELFTEYESKLFSNTVKGQTAIFEEMIEDEEGLVDDRAPTTTRGLWAISETERSMKAILSFAKSHRFDVEFVDEGSTSMDLFEAWKKEYKLLHEYWMALRNRVSAVDELAMATERLRVRDPREPKPNPPVLHIIEPHEVEQNRIKLLNDKAVATSQLQKKLGQLLYLTNLEKSQDKTSGGVNPEPCPICARQLGKQWAVLTCGHCFCNECISIIIEQYSVGSHRSSIKCAICRQTTSHKEISYVFTSEKANQEEDIPVKGSHSTKVEAVVRTLMKIQLRDPGAKALVFSTWQDVLDIISKALTDNNMEFAQISRVKTFQENLSAFKRDPQINILLLPLHTGSNGLTIIEATHVLLVEPILNPAHELQAIGRVHRIGQTKPTIVHRFLIKATIEERMQAMLKTAERSHTNSSAKHSEASVLTVADLADLFTKETEELE
